Where two headings read alike, the source gives them in different places.
Tests used:
PKCα [1] = molecular target: T1, PKCα (Homo sapiens, UniProt P17252); settings: optimal PKCα peptide substrate selected from the literature; cited from earlier work
[2] = Fluorescence increase, phosphopeptide vs unphosphorylated peptide at 485 nm; type: physicochemical; settings: phosphopeptide / unphosphorylated peptide intensity at 485 nm, generally 10 mM Mg2+
Protocol: (§1) Fluorescence experiments were performed on a Fluoromax 3 from Jobin Yvon. 5 nm emission and excitation slit widths were used. For all experiments, an excitation wavelength of 360 nm was used. Enzyme assays were performed by monitoring emission at 485 nm.
After peptide characterization, emission spectra were obtained for unphosphorylated and phosphorylated peptides under appropriate conditions. The spectra were generally acquired in the presence of 10 mM Mg^2+(although lower Mg^2+concentrations can and have been used as well) and either 0, 0.1 or 1 mM ATP in a preselected buffer (usually 20 mM HEPES, pH 7.4). Relying on the emission spectra the fold fluorescence differences were measured by dividing the fluorescence intensity of the phosphopeptide by the fluorescence intensity of its unphosphorylated counterpart at 485 nm. FIG. 2 depicts the fluorescence spectra of the phosphorylated and unphosphorylated peptides in the appropriate assay mixture: (A) emissions scans of PKCβI-1 (10 μM), 10 mM Mg(II), 3×; (B) emissions scans of PKCβI-1 (10 μM), 10 mM Mg(II), 0 mM ATP, 3×.; (C) fluorescence difference for PKCβI-1 (10 μM), 10 mM Mg(II), 3×; (D) fluorescence increase for PKCβI-1 (10 μM) at 10 mM Mg (II).

PKCα [3] = molecular target: T1, PKCα; experiment: Kinetic parameters of the peptides with PKCα (continuous fluorescence assay); type: biochemical; settings: for Km / Vmax: with PKCα
Excerpt: To solve for enzyme kinetic parameters for this reaction, determination of the initial rate of product formation from the increase in fluorescence intensity is necessary. With this sensor, a correction for the decrease in fluorescence intensity due to the starting material being consumed is needed to determine the rate of product formation from the initial slope. The fluorescence intensity at any given point can be determined from the following equation: I(t)=fSs(t)+fPP(t) (1) where I(t) is the fluorescence intensity, S(t) is the amount of substrate in μM, P(t) is the amount of product in μM, fS is the fluorescence intensity per μM of substrate, and fP is fluorescence intensity per μM of product. The amount of substrate and product at any given point are related by: S(t)+P(t)=S0 (2) where S0 is the initial amount of substrate. Substitution of (2) into (1) followed by rearrangement, yields:
[formula] The initial slope of the reaction, dI(t)/dt, was measured within the first 5% of substrate turnover. The constants fP and fS were calculated from the slope of a line of fluorescence intensity versus concentration of P and S, respectively. A linear fit of a Hanes plot ([S]/V vs. […]) was used to find Km and Vmax.
For in vitro applications, the concentration of kinase can range from about 0.5 nM to about 1 μM, typically not more than about 500 nM, and preferably not more than about 250 nM. The concentrations of sensor can vary, but usually ranges between about 0.01 μM to 0.1 mM. Adenosine 5′-triphosphate (ATP) is the preferred source of phosphate, in stock solutions of about 10-100 mM. Because most kinases have Km values for ATP in the range of about 10-150 μM, saturating concentrations of ATP are used to arrive at values of Km and Vmax for the substrates. For in vivo applications, when the sensor is internalized into a cell, sufficient kinases, Mg^2+ and phosphate sources exist in the cytosol. For in vivo sensing, a cellular internalization sequence can be included in the sensor design. Suitable cellular internalization sequences include Penetratins, HIV-Tat domains and poly-arginine sequences (Lindgren, M. et al. Trends Pharmacol. Sci. 2000, 21, 99-103; Wadia, J. S. et al. Curr Opin. Biotech. 2002, 13, 52-56; Carrigan, C. N. Analyt. Biochem. 2005, 341, 290-298).
For applications in which the kinase is dependent on cofactors, a source of cofactor is also included in the sample. For example, for PKC, sources of Ca^2+, phospholipid and diacylglycerol are needed.
as §1

[4] = tested on: PKC isozymes present in cells; experiment: Use of sensor in cell lysates
Excerpt: In comparison, the chemosensors with the extended recognition domain as disclosed in the present invention for PKCα, PKCα-S9 and PKCα-S10, also have good biophysical properties (Table IV).

| Km (PKCα [3]) [µM] | Vmax (PKCα [3]) [µmol/min/mg] | selectivity for PKCα (PKCα [3]; as determined by kinetic parameters, compared with PKCα-S1) | Substance | Km (PKCα [1]) [µM] | Fluorescence Increase [2] [x] | reactivity in cell lysates [4] |
| --- | --- | --- | --- | --- | --- | --- |
| – | – | – | RRRKGS*FRRKA (RRRKGSFRRKA) [optimal PKCα peptide substrate selected from the literature] | 3.8 | – | – |
| 8.6 ± 2.9 | 5.9 ± 1.9 | – | Ac-Sox-P-G-(p)S F R R R-NH2 [PKCα-S1(P1), reference compound] | – | 5.7 | reactive toward many of the PKC isozymes |
| 0.093 ± 0.017 | 1.8 ± 0.12 | much more selective for PKCα | Ac-R R R-C(Sox)-G-(p)S F R R K A-NH2 [PKCα-S9(P9)] | – | 3.5 | – |

Reference: patent publication US8586570B2, “Sox-based kinase sensor” (Massachusetts Institute of Technology, priority 2006, dated 2013)
